Assay results as given in patent publication US20160264649A1.
Substitutions are numbered along the chain they refer to.

Columns and labels:
Assay in all cases: cell-based or functional assay
[1] = biological target: HIV-1 Env of isolate 98CN006 (subtype CRF08_BC) (HIV-1)
[2] = biological target: HIV-1 Env of isolate MGRM-D-024 (subtype D) (HIV-1)
[3] = biological target: HIV-1 Env of isolate MGRM-D-029 (subtype D) (HIV-1)
[4] = biological target: HIV-1 Env of pseudovirus isolate MGRM-G-013 (subtype G) (HIV-1)
[5] = biological target: HIV-1 Env of isolate MGRM-F1-014 (subtype F) (HIV-1)
[6] = biological target: HIV-1 Env of isolate MGRM-F1-018 (subtype F) (HIV-1)
[7] = biological target: envelope of aMLV pseudovirus (negative control)
[8] = biological target: HIV-1 Env of isolate MGRM-F1-012 (subtype F) (HIV-1)
[9] = biological target: HIV-1 Env of isolate MGRM-D-002 (subtype D) (HIV-1)
[10] = biological target: HIV-1 Env of isolate MGRM-D-013 (subtype D) (HIV-1)
[11] = biological target: HIV-1 Env of pseudovirus isolate MGRM-G-027 (subtype G) (HIV-1)
[12] = biological target: HIV-1 Env of pseudovirus isolate MGRM-G-014 (subtype G) (HIV-1)
[13] = biological target: HIV-1 Env of pseudovirus isolate MGRM-G-016 (subtype G) (HIV-1)
[14] = biological target: HIV-1 Env of isolate MGRM-F1-022 (subtype F) (HIV-1)
[15] = biological target: HIV-1 Env of isolate MGRM-D-014 (subtype D) (HIV-1)
[16] = biological target: HIV-1 Env of isolate MGRM-D-016 (subtype D) (HIV-1)
[17] = biological target: HIV-1 Env of isolate MGRM-D-028 (subtype D) (HIV-1)
[18] = biological target: HIV-1 Env of isolate 92UG001 (subtype D) (HIV-1)
[19] = biological target: HIV-1 Env of pseudovirus isolate MGRM-G-001 (subtype G) (HIV-1)
[20] = biological target: HIV-1 Env of isolate MGRM-F1-023 (subtype F) (HIV-1)
[21] = biological target: HIV-1 Env of isolate 92UG114 (subtype D) (HIV-1)
[22] = biological target: HIV-1 Env of pseudovirus isolate MGRM-G-024 (subtype G) (HIV-1)
[23] = biological target: HIV-1 Env of pseudovirus isolate MGRM-G-017 (subtype G) (HIV-1)
[24] = biological target: HIV-1 Env of pseudovirus isolate MGRM-G-025 (subtype G) (HIV-1)
[25] = biological target: HIV-1 Env of isolate MGRM-D-003 (subtype D) (HIV-1)
[26] = biological target: HIV-1 Env of isolate MGRM-F1-017 (subtype F) (HIV-1)
[27] = biological target: HIV-1 Env of pseudovirus isolate MGRM-G-019 (subtype G) (HIV-1)
[28] = biological target: HIV-1 Env of isolate MGRM-D-008 (subtype D) (HIV-1)
[29] = biological target: HIV-1 Env of pseudovirus isolate MGRM-G-004 (subtype G) (HIV-1)
[30] = biological target: HIV-1 Env of isolate MGRM-F1-006 (subtype F) (HIV-1)
[31] = biological target: HIV-1 Env of isolate 92UG005 (subtype D) (HIV-1)
[32] = biological target: HIV-1 Env of isolate MGRM-D-020 (subtype D) (HIV-1)
[33] = biological target: HIV-1 Env of isolate MGRM-D-011 (subtype D) (HIV-1)
[34] = biological target: HIV-1 Env of isolate MGRM-D-026 (subtype D) (HIV-1)
[35] = biological target: HIV-1 Env of isolate 98CN009 (subtype CRF07_BC) (HIV-1)
[36] = biological target: HIV-1 Env of isolate MGRM-F1-020 (subtype F) (HIV-1)
[37] = biological target: HIV-1 Env of isolate MGRM-D-012 (subtype D) (HIV-1)
[38] = biological target: HIV-1 Env of isolate MGRM-F1-016 (subtype F) (HIV-1)
[39] = biological target: HIV-1 Env of isolate MGRM-D-019 (subtype D) (HIV-1)
[40] = biological target: HIV-1 Env of pseudovirus isolate MGRM-G-011 (subtype G) (HIV-1)
[41] = biological target: HIV-1 Env of pseudovirus isolate MGRM-G-028 (subtype G) (HIV-1)
[42] = biological target: HIV-1 Env of isolate MGRM-F1-004 (subtype F) (HIV-1)
[43] = biological target: HIV-1 Env of isolate MGRM-F1-013 (subtype F) (HIV-1)
[44] = biological target: HIV-1 Env of isolate MGRM-F1-021 (subtype F) (HIV-1)
[45] = biological target: HIV-1 Env of pseudovirus isolate MGRM-G-009 (subtype G) (HIV-1)
[46] = biological target: HIV-1 Env of isolate MGRM-D-021 (subtype D) (HIV-1)
[47] = biological target: HIV-1 Env of isolate MGRM-D-022 (subtype D) (HIV-1)
[48] = biological target: HIV-1 Env of isolate 92UG024 (subtype D) (HIV-1)
[49] = biological target: HIV-1 Env of isolate MGRM-F1-015 (subtype F) (HIV-1)
[50] = biological target: HIV-1 Env of pseudovirus isolate MGRM-G-006 (subtype G) (HIV-1)
[51] = biological target: HIV-1 Env of isolate MGRM-D-004 (subtype D) (HIV-1)
[52] = biological target: HIV-1 Env of isolate MGRM-D-018 (subtype D) (HIV-1)
[53] = biological target: HIV-1 Env of isolate MGRM-F1-010 (subtype F) (HIV-1)
[54] = biological target: HIV-1 Env of isolate MGRM-F1-008 (subtype F) (HIV-1)
[55] = biological target: HIV-1 Env of isolate MGRM-D-005 (subtype D) (HIV-1)
[56] = biological target: HIV-1 Env of pseudovirus isolate MGRM-G-015 (subtype G) (HIV-1)
[57] = biological target: HIV-1 Env of isolate 92UG046 (subtype D) (HIV-1)
[58] = biological target: HIV-1 Env of isolate MGRM-D-001 (subtype D) (HIV-1)

B1: PGT-126 (antibody, V domains shown)
VH: QPQLQESGPGLVEASETLSLTCTVSGDSTAACDYFWGWVRQPPGKGLEWIGGLSHCAGYYNTGWTYHNPSLKSRLTISLDTPKNQVFLKLNSVTAADTAIYYCARFDGEVLVYHDWPKPAWVDLWGRGTLVTVSS
VL: QSALTQPPSASGSPGQSISISCTGTSNRFVSWYQQHPGKAPKLVIYGVNKRPSGVPDRFSGSKSGNTASLTVSGLQTDDEAVYYCSSLVGNWDVIFGGGTKLTVL
IC50 (neutralization) [1]: 0.046 µg/mL
IC50 (neutralization) [2]: 0.376 µg/mL
IC50 (neutralization) [3]: > 50 µg/mL
IC50 [4]: 48.8 µg/mL
IC50 (neutralization) [5]: > 50 µg/mL
IC50 (neutralization) [6]: 14.9 µg/mL
IC50 [7]: > 50 µg/mL
IC50 (neutralization) [8]: 0.3 µg/mL
IC50 (neutralization) [9]: 0.039 µg/mL
IC50 (neutralization) [10]: > 50 µg/mL
IC50 [11]: 0.875 µg/mL
IC50 [12]: 0.009 µg/mL
IC50 [13]: > 50 µg/mL
IC50 (neutralization) [14]: > 50 µg/mL
IC50 (neutralization) [15]: 0.03 µg/mL
IC50 (neutralization) [16]: > 50 µg/mL
IC50 (neutralization) [17]: > 50 µg/mL
IC50 (neutralization) [18]: > 50 µg/mL
IC50 [19]: 0.038 µg/mL
IC50 (neutralization) [20]: 0.009 µg/mL
IC50 (neutralization) [21]: 0.038 µg/mL
IC50 [22]: > 50 µg/mL
IC50 [23]: > 50 µg/mL
IC50 [24]: 17.1 µg/mL
IC50 (neutralization) [25]: 0.021 µg/mL
IC50 (neutralization) [26]: > 50 µg/mL
IC50 [27]: 0.018 µg/mL
IC50 (neutralization) [28]: 43.1 µg/mL
IC50 [29]: > 50 µg/mL
IC50 (neutralization) [30]: 0.078 µg/mL
IC50 (neutralization) [31]: 0.037 µg/mL
IC50 (neutralization) [32]: 0.023 µg/mL
IC50 (neutralization) [33]: 0.009 µg/mL
IC50 (neutralization) [34]: > 50 µg/mL
IC50 (neutralization) [35]: 0.019 µg/mL
IC50 (neutralization) [36]: > 50 µg/mL
IC50 (neutralization) [37]: > 50 µg/mL
IC50 (neutralization) [38]: > 50 µg/mL
IC50 (neutralization) [39]: > 50 µg/mL
IC50 [40]: 7.32 µg/mL
IC50 [41]: 0.012 µg/mL
IC50 (neutralization) [42]: 0.063 µg/mL
IC50 (neutralization) [43]: > 50 µg/mL
IC50 (neutralization) [44]: > 50 µg/mL
IC50 [45]: > 50 µg/mL
IC50 (neutralization) [46]: 0.047 µg/mL
IC50 (neutralization) [47]: > 50 µg/mL
IC50 (neutralization) [48]: > 50 µg/mL
IC50 (neutralization) [49]: > 50 µg/mL
IC50 [50]: > 50 µg/mL
IC50 (neutralization) [51]: > 50 µg/mL
IC50 (neutralization) [52]: 0.009 µg/mL
IC50 (neutralization) [53]: > 50 µg/mL
IC50 (neutralization) [54]: > 50 µg/mL
IC50 (neutralization) [55]: 0.792 µg/mL
IC50 [56]: > 50 µg/mL
IC50 (neutralization) [57]: > 50 µg/mL
IC50 (neutralization) [58]: 0.084 µg/mL

B2: PGT-127 (antibody, V domains shown)
VH: QPQLQESGPGLVEASETLSLTCTVSGDSTGRCNYFWGWVRQPPGKGLEWIGSLSHCRSYYNTDWTYHNPSLKSRLTISLDTPKNQVFLRLTSVTAADTATYYCARFGGEVLVYRDWPKPAWVDLWGRGTLVVTVS
VL: B1 VL with S19T, R28N, H36Y, G47E, N66S, T77A, A81G
IC50 (neutralization) [1]: 0.067 µg/mL
IC50 (neutralization) [2]: 1.95 µg/mL
IC50 (neutralization) [3]: > 50 µg/mL
IC50 [4]: 7.7 µg/mL
IC50 (neutralization) [5]: > 50 µg/mL
IC50 (neutralization) [6]: 3.59 µg/mL
IC50 [7]: > 50 µg/mL
IC50 (neutralization) [8]: > 50 µg/mL
IC50 (neutralization) [9]: 0.6 µg/mL
IC50 (neutralization) [10]: > 50 µg/mL
IC50 [11]: > 50 µg/mL
IC50 [12]: 0.009 µg/mL
IC50 [13]: > 50 µg/mL
IC50 (neutralization) [14]: > 50 µg/mL
IC50 (neutralization) [15]: 0.393 µg/mL
IC50 (neutralization) [16]: > 50 µg/mL
IC50 (neutralization) [17]: > 50 µg/mL
IC50 (neutralization) [18]: > 50 µg/mL
IC50 [19]: 0.113 µg/mL
IC50 (neutralization) [20]: 0.119 µg/mL
IC50 (neutralization) [21]: 7.09 µg/mL
IC50 [22]: > 50 µg/mL
IC50 [23]: > 50 µg/mL
IC50 [24]: 19.3 µg/mL
IC50 (neutralization) [25]: 0.029 µg/mL
IC50 (neutralization) [26]: > 50 µg/mL
IC50 [27]: 0.429 µg/mL
IC50 (neutralization) [28]: > 50 µg/mL
IC50 [29]: > 50 µg/mL
IC50 (neutralization) [30]: 7.17 µg/mL
IC50 (neutralization) [31]: 1.11 µg/mL
IC50 (neutralization) [32]: 0.015 µg/mL
IC50 (neutralization) [33]: 0.015 µg/mL
IC50 (neutralization) [34]: > 50 µg/mL
IC50 (neutralization) [35]: 0.09 µg/mL
IC50 (neutralization) [36]: > 50 µg/mL
IC50 (neutralization) [37]: > 50 µg/mL
IC50 (neutralization) [38]: > 50 µg/mL
IC50 (neutralization) [39]: > 50 µg/mL
IC50 [40]: > 50 µg/mL
IC50 [41]: 0.032 µg/mL
IC50 (neutralization) [42]: 0.068 µg/mL
IC50 (neutralization) [43]: > 50 µg/mL
IC50 (neutralization) [44]: > 50 µg/mL
IC50 [45]: > 50 µg/mL
IC50 (neutralization) [46]: 0.056 µg/mL
IC50 (neutralization) [47]: > 50 µg/mL
IC50 (neutralization) [48]: > 50 µg/mL
IC50 (neutralization) [49]: > 50 µg/mL
IC50 [50]: > 50 µg/mL
IC50 (neutralization) [51]: > 50 µg/mL
IC50 (neutralization) [52]: 0.021 µg/mL
IC50 (neutralization) [53]: > 50 µg/mL
IC50 (neutralization) [54]: > 50 µg/mL
IC50 (neutralization) [55]: 6.04 µg/mL
IC50 [56]: > 50 µg/mL
IC50 (neutralization) [57]: > 50 µg/mL
IC50 (neutralization) [58]: 2.23 µg/mL
